Changes are numbered by the printed parent chain.
Experiments:
[1] = target: HLA-A*02:01 presenting MAGE-A4 286-294 peptide (…) (human); assay: cell-based or functional assay
[2] = target: HLA-A*02:01 presenting NBAS 2063-2071 peptide (…) (human); assay: cell-based or functional assay
[3] = target: HLA-A*02:01 presenting FN1 2182-2190 peptide (…) (human); assay: cell-based or functional assay
[4] = target: HLA-A*02:01 presenting PLEKHH2 790-798 peptide (…) (human); assay: cell-based or functional assay
[5] = target: HLA-A*02:01 presenting SMIM11A 4-12 peptide (…) (human); assay: cell-based or functional assay
[6] = target: HLA-A*02:01 presenting MRPL37 334-342 peptide (…) (human); assay: cell-based or functional assay
[7] = target: HLA-A*02:01 presenting SHTN1 198-206 peptide (…) (human); assay: cell-based or functional assay
[8] = target: T1, HLA-A*02:01 presenting HEATR5A 1925-1933 peptide (…) (human); assay: cell-based or functional assay
[9] = target: HLA-A*02:01 presenting CARD8 170-178 peptide (…) (human); assay: cell-based or functional assay
[10] = target: HLA-A*02:01 presenting TEP1 2156-2164 peptide (…) (human); assay: cell-based or functional assay
[11] = target: HLA-A*02:01 presenting RABGAP1L 408-416 peptide (…) (human); assay: cell-based or functional assay
[12] = target: HLA-A*02:01 presenting AOX1 795-803 peptide (…) (human); assay: cell-based or functional assay
[13] = target: HLA-A*02:01 presenting CNOT1 1965-1973 peptide (…) (human); assay: cell-based or functional assay
[14] = target: HLA-A*02:01 presenting MAGE-A4 286-294 peptide (…) (human); assay: cell-based or functional assay; remark: listed apart in the source
[15] = target: HLA-A*02:01 presenting PCDHGC3 337-345 peptide (…) (human); assay: cell-based or functional assay
[16] = target: HLA-A*02:01 presenting PSME2 145-153 peptide (…) (human); assay: cell-based or functional assay
[17] = target: HLA-A*02:01 presenting MAGE-A4 286-294 peptide (…) (human); assay: cell-based or functional assay; remark: listed apart in the source
[18] = target: T2, HLA-A*02:01 presenting NBAS 2063-2071 peptide (…) (human); assay: flow cytometry, peptide-pulsed T2 cells;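 as to S/N ratio: ratio of peak mean fluorescence intensity across a 12-point threefold antibody dilution series to the MFI with secondary antibody only, live-gated cells by flow cytometry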
T2 construct: On peptide-pulsed T2 cells; also called T2 Pulsed NBAS 2063-2071

[19] = target: T3, HLA-A*02:01 presenting FN1 2182-2190 peptide (…) (human); assay: flow cytometry, peptide-pulsed T2 cells;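 as to S/N ratio: ratio of peak mean fluorescence intensity across a 12-point threefold antibody dilution series to the MFI with secondary antibody only, live-gated cells by flow cytometry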
T3 construct: On peptide-pulsed T2 cells; also called T2 Pulsed FN1 2182-2190

[20] = target: T4, HLA-A*02:01 presenting PLEKHH2 790-798 peptide (…) (human); assay: flow cytometry, peptide-pulsed T2 cells;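 as to S/N ratio: ratio of peak mean fluorescence intensity across a 12-point threefold antibody dilution series to the MFI with secondary antibody only, live-gated cells by flow cytometry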
T4 construct: On peptide-pulsed T2 cells; also called T2 Pulsed PLEKHH2 790-798

[21] = target: T5, HLA-A*02:01 presenting SMIM11A 4-12 peptide (…) (human); assay: flow cytometry, peptide-pulsed T2 cells;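 as to S/N ratio: ratio of peak mean fluorescence intensity across a 12-point threefold antibody dilution series to the MFI with secondary antibody only, live-gated cells by flow cytometry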
T5 construct: On peptide-pulsed T2 cells; also called T2 Pulsed SMIM11A 4-12

[22] = target: T6, HLA-A*02:01 presenting MRPL37 334-342 peptide (…) (human); assay: flow cytometry, peptide-pulsed T2 cells
T6 construct: On peptide-pulsed T2 cells; also called T2 Pulsed MRPL37 334-342

[23] = target: T1, HLA-A*02:01 presenting HEATR5A …; assay: flow cytometry, peptide-pulsed T2 cells
[24] = target: T7, HLA-A*02:01 presenting CARD8 170-178 peptide (…) (human); assay: flow cytometry, peptide-pulsed T2 cells
T7 construct: On peptide-pulsed T2 cells; also called T2 Pulsed CARD8 170-178

[25] = target: T8, HLA-A*02:01 presenting TEP1 2156-2164 peptide (…) (human); assay: flow cytometry, peptide-pulsed T2 cells
T8 construct: On peptide-pulsed T2 cells; also called T2 Pulsed TEP1 2156-2164

[26] = target: T9, HLA-A*02:01 presenting RABGAP1L 408-416 peptide (…) (human); assay: flow cytometry, peptide-pulsed T2 cells
T9 construct: On peptide-pulsed T2 cells; also called T2 Pulsed RABGAP1L 408-416

[27] = target: T10, HLA-A*02:01 presenting CNOT1 1965-1973 peptide (…) (human); assay: flow cytometry, peptide-pulsed T2 cells
T10 construct: On peptide-pulsed T2 cells; also called T2 Pulsed CNOT1 1965-1973

[28] = target: T11, HLA-A*02:01 presenting PCDHGC3 337-345 peptide (…) (human); assay: flow cytometry, peptide-pulsed T2 cells
T11 construct: On peptide-pulsed T2 cells; also called T2 Pulsed PCDHGC3 337-345

[29] = target: T12, HLA-A*02:01 presenting PSME2 145-153 peptide (…) (human); assay: flow cytometry, peptide-pulsed T2 cells
T12 construct: On peptide-pulsed T2 cells; also called T2 Pulsed PSME2 145-153

[30] = target: T2, HLA-A*02:01 presenting NBAS 2063-2071 …; assay: flow cytometry, peptide-pulsed T2 cells; remark: listed apart in the source
Method: (§1) Samples were run on an Intellicyt iQue flow cytometer (Intellicyt) and results were analyzed using Forecyte analysis software (Intellicyte) to calculate the mean fluorescent intensity (MFI) after gating for live cells. MFI values were plotted in Graphpad Prism using a four-parameter logistic equation over a 12-point response curve to calculate EC₅₀ values. The secondary antibody alone (i.e. no primary antibody) for each dose-response curve is also included in the analysis as a continuation of the three-fold serial dilution and is represented as the lowest dose. The signal to noise (S/N) was determined by taking the ratio of the highest MFI on the dose response curve to the MFI in the secondary alone wells.

[31] = target: T3, HLA-A*02:01 presenting FN1 2182-2190 …; assay: flow cytometry, peptide-pulsed T2 cells; remark: listed apart in the source
Method: as §1

[32] = target: T4, HLA-A*02:01 presenting PLEKHH2 790-798 …; assay: flow cytometry, peptide-pulsed T2 cells; remark: listed apart in the source
Method: as §1

[33] = target: T5, HLA-A*02:01 presenting SMIM11A 4-12 …; assay: flow cytometry, peptide-pulsed T2 cells; remark: listed apart in the source
Method: as §1

[34] = target: T6, HLA-A*02:01 presenting MRPL37 334-342 …; assay: flow cytometry, peptide-pulsed T2 cells; remark: listed apart in the source
Method: as §1

[35] = target: T13, HLA-A*02:01 presenting SHTN1 198-206 peptide (…) (human); assay: flow cytometry, peptide-pulsed T2 cells
T13 construct: On peptide-pulsed T2 cells; also called T2 Pulsed SHTN1 198-206
Method: as §1

[36] = target: T1, HLA-A*02:01 presenting HEATR5A …; assay: flow cytometry, peptide-pulsed T2 cells; remark: listed apart in the source
Method: as §1

[37] = target: T7, HLA-A*02:01 presenting CARD8 170-178 …; assay: flow cytometry, peptide-pulsed T2 cells; remark: listed apart in the source
Method: as §1

[38] = target: T8, HLA-A*02:01 presenting TEP1 2156-2164 …; assay: flow cytometry, peptide-pulsed T2 cells; remark: listed apart in the source
Method: as §1

[39] = target: T9, HLA-A*02:01 presenting RABGAP1L 408-416 …; assay: flow cytometry, peptide-pulsed T2 cells; remark: listed apart in the source
Method: as §1

[40] = target: T14, HLA-A*02:01 presenting AOX1 795-803 peptide (…) (human); assay: flow cytometry, peptide-pulsed T2 cells
T14 construct: On peptide-pulsed T2 cells; also called T2 Pulsed AOX1 795-803
Method: as §1

[41] = target: T10, HLA-A*02:01 presenting CNOT1 1965-1973 …; assay: flow cytometry, peptide-pulsed T2 cells; remark: listed apart in the source
Method: as §1

[42] = target: T15, HLA-A*02:01 presenting MAGE-A4 286-294 peptide (…) (human); assay: flow cytometry, peptide-pulsed T2 cells
T15 construct: On peptide-pulsed T2 cells
Method: as §1

[43] = target: T11, HLA-A*02:01 presenting PCDHGC3 337-345 …; assay: flow cytometry, peptide-pulsed T2 cells; remark: listed apart in the source
Method: as §1

[44] = target: T12, HLA-A*02:01 presenting PSME2 145-153 …; assay: flow cytometry, peptide-pulsed T2 cells; remark: listed apart in the source
Method: as §1

[45] = target: T15, HLA-A*02:01 presenting MAGE-A4 286-294 …; assay: flow cytometry, peptide-pulsed T2 cells; remark: listed apart in the source
Method: as §1

B1: bsAb6054 (bispecific antibody, V domains shown)
VH 1: QVQLVESGGGLVKPGGSLRLSCAASGFTFSEYYLTWIRQAPGKGLDWIAYISSSGYNIYYADSVKDRFTISRDNGKNSLFLQMNNLRAEDTAVYFCAREGVTDGMDVWGQGTTVTVSS
VH 2: EVQLVESGGGLVQPGRSLRLSCAASGFTFADYTMHWVRQAPGKGLEWVSDISWNSGSIAYADSVKGRFTISRDNAKNSLYLQMNSLRTEDTAFYYCAKDSRGYGHYKYLGLDVWGQGTTVTVSS
VL: DIQMTQSPSSLSASVGDRVTITCRASQSIDTFLNWYQQKPGKVPKLLIYAASNLESGVPSRFSGSGSGTVFTLTISRLQPEDFATYYCQQSYSIPPITFGQGTRVEIK
[1]
  EC50, NF-κB luciferase, Jurkat/NF-κB Luc + IM-9: 740 pM
  EC50, NF-κB luciferase, Jurkat/NF-κB Luc + U266: 3.1 nM
  Fold Activation, NF-κB luciferase, Jurkat/NF-κB Luc + IM-9: 41.9 fold
  Fold Activation, NF-κB luciferase, Jurkat/NF-κB Luc + U266: 6.3 fold
[2]
  EC50 (M), Jurkat/NF-κB-Luc reporter with pulsed T2 cells: > 2e-08 M
  Fold change, Jurkat/NF-κB-Luc reporter with pulsed T2 cells: 1.3 fold
[3]
  EC50 (M), Jurkat/NF-κB-Luc reporter with pulsed T2 cells: > 2e-08 M
  Fold change, Jurkat/NF-κB-Luc reporter with pulsed T2 cells: 1 fold
[4]
  EC50 (M), Jurkat/NF-κB-Luc reporter with pulsed T2 cells: > 2e-08 M
  Fold change, Jurkat/NF-κB-Luc reporter with pulsed T2 cells: 2.8 fold
[5]
  EC50 (M), Jurkat/NF-κB-Luc reporter with pulsed T2 cells: > 2e-08 M
  Fold change, Jurkat/NF-κB-Luc reporter with pulsed T2 cells: 1 fold
[6]
  EC50 (M), Jurkat/NF-κB-Luc reporter with pulsed T2 cells: > 2e-08 M
  Fold change, Jurkat/NF-κB-Luc reporter with pulsed T2 cells: 2.4 fold
[7]
  EC50 (M), Jurkat/NF-κB-Luc reporter with pulsed T2 cells: 1.3e-09 M
  Fold change, Jurkat/NF-κB-Luc reporter with pulsed T2 cells: 81.1 fold
[8]
  EC50 (M), Jurkat/NF-κB-Luc reporter with pulsed T2 cells: > 2e-08 M
  Fold change, Jurkat/NF-κB-Luc reporter with pulsed T2 cells: 1.2 fold
[9]
  EC50 (M), Jurkat/NF-κB-Luc reporter with pulsed T2 cells: > 2e-08 M
  Fold change, Jurkat/NF-κB-Luc reporter with pulsed T2 cells: 1.2 fold
[10]
  EC50 (M), Jurkat/NF-κB-Luc reporter with pulsed T2 cells: > 2e-08 M
  Fold change, Jurkat/NF-κB-Luc reporter with pulsed T2 cells: 1.2 fold
[11]
  EC50 (M), Jurkat/NF-κB-Luc reporter with pulsed T2 cells: > 2e-08 M
  Fold change, Jurkat/NF-κB-Luc reporter with pulsed T2 cells: 1 fold
[12]
  EC50 (M), Jurkat/NF-κB-Luc reporter with pulsed T2 cells: 2.1e-11 M
  Fold change, Jurkat/NF-κB-Luc reporter with pulsed T2 cells: 36 fold
[13]
  EC50 (M), Jurkat/NF-κB-Luc reporter with pulsed T2 cells: > 2e-08 M
  Fold change, Jurkat/NF-κB-Luc reporter with pulsed T2 cells: 1 fold
[14]
  EC50 (M), Jurkat/NF-κB-Luc reporter with pulsed T2 cells: 2e-12 M
  Fold change, Jurkat/NF-κB-Luc reporter with pulsed T2 cells: 78.7 fold
[15]
  EC50 (M), Jurkat/NF-κB-Luc reporter with pulsed T2 cells: > 2e-08 M
  Fold change, Jurkat/NF-κB-Luc reporter with pulsed T2 cells: 1 fold
[16]
  EC50 (M), Jurkat/NF-κB-Luc reporter with pulsed T2 cells: > 2e-08 M
  Fold change, Jurkat/NF-κB-Luc reporter with pulsed T2 cells: 1 fold
[17]
  EC50, NF-κB luciferase, Jurkat + IM-9, with 2 nM mAb5705 (anti-CD28): 2.1 nM
  EC50, NF-κB luciferase, Jurkat + U266, with 2 nM mAb5705 (anti-CD28): 6.1 nM
  Fold Activation, NF-κB luciferase, Jurkat + IM-9, with 2 nM mAb5705 (anti-CD28): 28.7 fold
  Fold Activation, NF-κB luciferase, Jurkat + U266, with 2 nM mAb5705 (anti-CD28): 8.6 fold

B2: mAbH31339N2 (antibody, human IgG4 S228P, kappa, V domains shown)
VH: B1 VH 1
VL: DIQMTQSPSSLSASVGDRVTITCRASQSIDTFLNWYQQKPGKVPKLLIYAASNLESGVPSRFSGSGSGTVFTLTISRLQPEDFATYYCQQSYSIPPITFGQGTRVEIKR
notes: Fully human form (human constant region); also called parent antibody
[18]
  binding result: no binding
[19]
  binding result: no binding
[20]
  binding result: no binding
[21]
  binding result: no binding
[22]
  binding result: no binding
[23]
  binding result: no binding
[24]
  binding result: no binding
[25]
  binding result: no binding
[26]
  binding result: no binding
[27]
  binding result: no binding
[28]
  binding result: no binding
[29]
  binding result: no binding
[30]
  S/N ratio: 1
[31]
  S/N ratio: 1
[32]
  S/N ratio: 1
[33]
  S/N ratio: 1
[34]
  S/N ratio: 1
[35]
  S/N ratio: 5
[36]
  S/N ratio: 1
[37]
  S/N ratio: 1
[38]
  S/N ratio: 1
[39]
  S/N ratio: 1
[40]
  S/N ratio: 131
[41]
  S/N ratio: 1
[42]
  S/N ratio: 310
[43]
  S/N ratio: 1
[44]
  S/N ratio: 1

B3: mAbM31339N (antibody, V domains shown)
VH: B1 VH 1 with K76N
VL: B1 VL
notes: Human variable regions with a mouse constant region (detected with anti-mouse Fc secondary; its isotype control is mIgG2a); also called mAb31339N
[45]
  EC50: 1.7 nM

Source: patent US20240226163A1 (Regeneron, published 2024)
